According to the NTF2 design screens of Basanta et al. (2020):

Test: protease stability score; higher = more stable; yeast display proteolysis, trypsin and chymotrypsin;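 further: relative to predicted unfolded state with 0 unfolded-like and 1 meaning tenfold more protease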
In the case of “TEDEELSHEIFEIWERVRRTGDEHTLERLADPNMRVHIDGQDYHGREMLFEFLNRFKGLKSDIHDMRIEIVGDYIILNIKVHITVNGREIHLTIHLHSRKFNGKWHLKELEIRKI”, the protease stability score is reported as 1.32. In the case of “DEDHHLVQLASEIVSKLIHTGDEEMIYHLADPHTRNDVNGKVFHGRDEMLKYLHDRWRHFGVERINHIVHHIRVVDGRADIDGRLHVGDKDFTVHIHMEKVNGRWVIKEIRIK”, the protease stability score is reported as 0.68. “DEEEEMAHRLVEQHDEFIRTGDERINHELADPHAKVEIGDKEFIGRETFSKLMVEWRTREIRLTHIEVINGQVHLYQDVRVDYNGKEMHQHVRWDSLKINGKWFDHSVHIK” showed a protease stability score of 0.317. Work on “HEEEEWFKEVLHEVERLLMTGDWRTLVELLDPNVRININGVEYHGREEAHHKLEETFRRLGFDHIHFQHVEHQGEKVIVHLEVRFNGQSSIIRFVVLKVNGRWFNHSLQIN” yielded a protease stability score of 1.29. With “DDSRRVAEEVSELIKILYDTGDWRHLHELLDPHVRIEIGDKEFHGRDTWLREMIRADHVEYHTHDYRSQGNKIFIRGHLIVHINGRTHKEDVRLHVHKVDGQWIIDSIEMK” the protease stability score was 1.01. In the case of “SEDEENVEKFVRELIHNSRTGDEEKFMSLLDPNTRIHVDGRTFHGMELASEALKLLGVKVFHVHRIKVVGEWAHVDGEVNFNGKDHKVSFHSRKVNGQWLLESVEIQ”, the protease stability score is reported as 1.22. Sequence “SEDDNMAEHVLRYFIEHHLTGDFDSILKLMDPNMRLEVNGREHWGRKRWSEHLLRMGFDHVDIEEHRINSYGNFAYEIIHGRYHINGQEINITLIINVEKVNGKWIIREVTIVKR” has a protease stability score of 1.74. “DELEHHLFELMEKMIKARLTGDEETLHRLADPDTRIEVGEFEFHGREHWVRFVRELDERIKNIRFEIRLRRYETVGNKIHIDIELRYHQGDKEEHHRTEWILIVFNGRLKSIQIVLH” gave a protease stability score of 1.81. In the case of “SEDEKERDMIAELFVRSLVTGDEELIKDLIDPNVKLDIGDKSRHGRENFTRQILHFGVDHVDVTEMHVQGEKVNLRGNWNINGVDLDVINYVTKVNGKWLLTRVEIK”, the protease stability score is reported as 1.14. Work on “SEEEHEQENWARLMLHLFLTGDEEILLELFDPNVRSDVDGRKFHGRDEVSHAIRWILEHFGFKHSHVRHFEIYNGRVHSEVEINVDGVRLTLHIHLNIYNGRLKDSEFRLK” yielded a protease stability score of 0.967. “DESTKEARKFKHEFDNDWKTGDEDSLLRLADPHVRTDVNGVENHGREDFVKLLMDIFREMRTEMRTRHVTVFNGRIEVHSTLHLHQGDKVIDLEVLIINRKVNGRWILESMEIK” showed a protease stability score of 0.603. Sequence “NEREKWAVDMFEILVHLFFTGDEEIMAHMADPNTQIHYGEYHHHGRDHLRELLREEFKRVDHVEWRLDTVRIIDGRVLIHSHVIHKVGEKTIKREYVIILLKVNGQWHIKHIEIR” has a protease stability score of 1.46. With “DEHQERNRRALEEMNRILDTGDWEELTELADPHVRIHYGEFNLHGREDAHRFWKHIVERFKGIRVNIHDVKMVGNYVDVDGHLEIGDKEHKVRIIAFKINGRWLLHSMHFV” the protease stability score was 1.38. With “TEEHEDIMHFILEWTNSLLTGDFKRVKEMADPHVRVLIVIGDKELHLHGREWILKRTHDIVREMRVEIILHHVDSQGNFAHVDSTLRIEVDGVRFERKTRIHMDIVNGKLKSHEHRIE” the protease stability score was 1.29. “DELDSILEEFARVFMQNLETGDEDSSRHYLDPHYRVELDIGDWTIQMHGWRSDHIRRRYLGADHERILIRDYRVYNGRIRVEGQMDITVNGKRVTYHTEFILHVVNGKATRVSMKFE” gave a protease stability score of 0.707. “SEEEKEYEHWMRLYLHWRLTGDEEAEKRNADPNTRVEFNGKELHGMEVVSEFIIKLRNEMRFEFLEIDDMRVIDGVSHFDVTVDGVIDGKRVRLTLHIILIVINGKIHHIQEEWK” gave a protease stability score of 1.43. Sequence “DDNEELTERFMKHLIRAQQTGDWERLKELFDPNTRLIVGEKHVVGREHFINEWLEHHNKLGIDHSQIELHNLRIINGKAHIDGHFIEEFNGKRIEIRIEVVIVKINGRWLIKEIHFI” has a protease stability score of 1.44. For “DEDTEKHKELLEMLVVAYLTGDFRHWWDLADPHVKLDQGDKHLHGREDMVEWIRRFIKKFKNVQVKIRHIHHQGNKDNIDGILDVDGREYHVEIIIVLVDGVIRSEEIRVK”, the protease stability score was 1.87. Work on “DEDFEHARRVLELFIESVETGDENSYRRLADPNTRYHAENHEHHGREYYIRLLEELRMSVHDLKIESWRLVDGQLRLNTRTDLHVNVNGQRIRLDTETHIVLNKINGRWYIHIIYIG” yielded a protease stability score of 1.27. With “SEEEEVLRHLSKTFTRAMLTGDWKFLFEFADPHVRNDVGDWTRIGMHSMIELLELLHRELRITHLHIDEVRVIGNKAEWEGRNNVRINGQEDKRDVRLELEIVDGKMSLVNVEFK” the protease stability score was 0.364. Work on “DEDHEIAKKASDIWWHILRTGDEDQLHKMMDPHVRTTVGDKEHHGREAVEHLTHFYKNMQIHVTHERFHVQGDKVHVEREGHLRIGDKRVEVRVRIEIHKVDGKWIIHTIEMELR” yielded a protease stability score of 0.425. “DERHEDIKKFMELVLRLAKTGDEDHFSNMVDPHARLEIGDKHYIGRELVSTLFHEIRLHDMKIHNIISYGDKVKADVRLDIEFDGRRWNINTLLIIHKVNGQWLLESERRH” showed a protease stability score of 1.14. Sequence “DTEQKHVLHLLDEVLHNILTGDWDRIDELMDPNVRVIIGEWDHHGRSYFRELHHLLMLKLGVDHRHIKIQDKDAQGEYAVAHTHLELRIGDKRETYQTRLIVSVVNGKIEEIRIHIG” has a protease stability score of 0.877. Work on “DEDKEIAKKAIEDLLRAWYTGDEEFLKNLVDPNVRSNFDGVDYHGRDEVEKFWHDHLRDLGADHVEFSLHELRIYGDKIILHTKIKFNVNGREIRRETEVISRKIDGRWLIKEIHFR” yielded a protease stability score of 1.42. “SEYEDLIKTALHLWHEIFLTGNEDVLHRLIDPHVRVTFNGVRNHGRDYLLHHIEELGMEHHNFDISHVDMQGDKIILYTFLHAHVNGRTTSFQLHIFWIKVNGRWIVKRVEIR” gave a protease stability score of 0.759. For “SELEESVRWAAEVFVKYTLTGNEHLLSRYFDPNVRVHFDGVDLHGREELSKLFLHIRFRRIHLRSEKEFEGHAELDQEHDGHYNGVRHNRTLRLHMIKINGQWITEVFILH”, the protease stability score was 1.34. Sequence “HDLEKFLDHFFEKLMKELETGDEQSWRRLADPRARLHINGKDFHGREFEHELRNKWGVSRVEEKLDSRDVIGNKLILDGSLSVNGKEIKAILFVQKVDGKWEFKEIEVH” has a protease stability score of 1.34. Work on “DERTEHNRQLAEEITRALLTGDWHEIEKQADPHVKFRQGEFSYVGREDLVRFWEEFIKKIKNITLRIREIRVIGDKVHIHNDLKIGDKETHVHIILVLIDGRLHHLEIRIE” yielded a protease stability score of 1.45. “DKEEEEVREALRILLEEWHTGDFDRILDLFDPNDRMHIGDKDLHGRHIMEHFYDHMIKRVKNMRIELTDVRFQGDKVWFHVKEHFDGRTISSEIVLVKINGKWRIETIFII” gave a protease stability score of 1.46. “SEHDESIHRHFEKIHESIRTGDEELLRKFLDPNTLLVNEDEKVVGWEQWVEQVRRHLTELGAKHVSFSLHDRRFFDGRLHLDSRVIIEIGDKRLSLETEVINLKFNGRWIITSLTSS” gave a protease stability score of 1.14. With “SEIEKMFHIALKLWVRTMKTGDFEDLLRLLDPNWRLEVNGRTHHGREELEHEIRELGIDQFHLHHIEHKEFLVQGEKITIDGRINGEFNGVQYNTRVIIIAKKINGRWVLHSEEIK” the protease stability score was 1.37. “REEEELMKEIARRVIESHYTGDEDWWLELADPNVQVHVGDKRKVGREHALHLLHIFHKHLGVDHLHLRHVHVQGDWIEIEMDLNINGKIREMRVFVTVIDGRLDSINIDIK” gave a protease stability score of 1.27. “SEDDEEKEEYLRKELEAHRTGDWRLFRELIDPHTKIHINGVLFVGWKDATRFFKEIRVKDHKVHRVRNIDGRIEMDGELNIDIDGREDIMIVHIRAKKVNGRWIVDSVEFR” showed a protease stability score of 1.19. For “SEDERQSEHMNRLIFESLETGDFHKLMRLMDPHARAVVDGREVHGMELLEEILKRIKDELGVTRIRTRIRTERTQGNKADNITEYEIGDKSFTVIIHNQKIDGRWVIHEVRFE”, the protease stability score was 1.24. “DETEDTIHEAVKEFVTALMTGDEELLQKLMDPRTRLDYNGREIHGREEVIRLLLEMRIHHVEIKRIEIQGNKVHVDVKVDGEFNGQRRETKTIINATKINGRWVVQELVIR” showed a protease stability score of 2.26. “SEDEHELREFVNRYLHAMKTGDEDMLRDLLDPHVRFLIDGKNYHGREWVVAIFREFGIDRVEFELKDSEVQGDKVHIDGRVHINGQERSTEFRLEKYNGKWFLREEHYH” gave a protease stability score of 1.5. In the case of “SEDEEVIKKHLKEFIDVLRTGNEEMSSYLADPNARVVDENEFSHGREDMTRIVSQARLHHIHVHDFELQGDKLLLDVHVDGVINGRRRRDKFHFVWLKYNGRWFLHSVHIR”, the protease stability score is reported as 0.652. “DDDEEIIERALRLWEKFEQTGDEKRLDEMIDPNVRVNYNGVIHHGRDHLRHFFSRFDHFKRLHIEDSRFFNGKIIIHTRLEGRIGDKERTVNVIIIALKVDGKWFLESWSMS” showed a protease stability score of 0.618. With “EEEEEELLELLKRLWHAKSTGDEETTEKMADPNARFIINGREVHGRHMLNHLVKHLREEIKHVHIHRVSVVNGKAKMDTEVNVELEYNGVTFIIRTRVEIDTVVIDGRFHSVSIEIR” the protease stability score was 1.12. “SELEKLLLDIARKLIHSYLTGDWRTFQELADPNVKIRVVVGDKEERIHGRENIIEWLERERKQYDHIEVRIDDERTIGDKLHIDGTFIIRVDGKTRFSRVEIHLLIIDGKVTSLEFHEK” showed a protease stability score of 1.07. “SEDHELVHRFTHFFLRMYFTGDEKEMEDLLDPNTRILWNGKEFHGREEVIEALRYIRSHARIRDFTIHSFEIFDGRAKMDTREHGEIDGRLRTFTLRLHILKVNGRWQFQEIQIE” showed a protease stability score of 2.12. For “TETERHIEEHLRQMVHQLRTGDFERFEDLADPNMRIDVDGKEFIGREAVDRFWRRVDVIHDLDFKDMEIQGNKVVLNVRIIGNINGVHDHTEQHIVVFKINGRWYWHSIEVH”, the protease stability score was 1.16. For “DEKEEAARQIMTWLLEVLLTGDERLFEHNADPNVRIDVDGVDLVGMELFRHEVRRIDHMESRMRVRRVTVQGDKVRMEVEIEVTLFINGKEIRHRRESELIVLKIDGRWIIKSTHVK”, the protease stability score was 1.56. “DEEDEKTRRMAELWSKWKSTGDEELFHHFADPRTRLEIGDKKYHGRDLISKIWFKERKEIRSDINIKDVDVFNGVAILHGTLILEINGQRDSIDVTFHIVLINGRIHEVRVEWR” gave a protease stability score of 0.73. With “TEEEHIIDDFDKRLLHAFVTGNEDLLAKLADPNVRLSVKIGDKTIERHGMESFRNWLRRFHEEIRIEDHKSDEVRFYNGVLEHHGTVLGHVNGVRTKVHVLEIYFIINGRMRNIWIEVR” the protease stability score was 1.54. Sequence “TEEEEEFKRTSHEIFYALHTGNWEILEKMFDPHVRTHINGKDVHGREEATRVMELWIEELGVKHIHIKSEHHDIQGEFVRIHFHIISRVGDKFIEIEIEMEIRKINGRWRFTSIRLDRR” has a protease stability score of 1.42. For “SELEDMLRHMFDLFWRAFRTGDWELLMRLADPHVRLEVRFNGRHIEHVGRESFVESVETLRHEWRIDHLRINDEKYQGDYVNLNTRMDVFFDGVKVRTDTRVHSVVVNGRLREFSIEFG”, the protease stability score was 0.495. “TESKQEEHLALEVIEHAYRTGDEHELHELLDPHTRIFIGDKTHHGREFYLRVLKRERDELGVDKIEIIIRRVEIQGDKMIMDGELRVNGKTVRVHLILRKYDGRWLIKHITHE” showed a protease stability score of 1.47. With “SEDEEWVRRKVERWIRAFKTGNFEELRRNADPDTRIHINGVNFHGREDFEKFVTELMRRVKNARIDVHRLELQGEFIHSDETEDVNGVEHHVRFTYRKIDGRWSLHSIEFH” the protease stability score was 1.59. With “DEERKFWHELAELLFHIHLTGDEDMLRHLLDPHVRSDINGVELHGREQAAEHFHKLMKTLGVKHIHHKRMHTIGDKTIIHGESEVDGRILHVHNHFWVVNGKVEEVKMHIE” the protease stability score was 0.495.
